T1: rat liver glucokinase regulatory protein (rat, UniProt Q07071 1-627)
T1 sequence: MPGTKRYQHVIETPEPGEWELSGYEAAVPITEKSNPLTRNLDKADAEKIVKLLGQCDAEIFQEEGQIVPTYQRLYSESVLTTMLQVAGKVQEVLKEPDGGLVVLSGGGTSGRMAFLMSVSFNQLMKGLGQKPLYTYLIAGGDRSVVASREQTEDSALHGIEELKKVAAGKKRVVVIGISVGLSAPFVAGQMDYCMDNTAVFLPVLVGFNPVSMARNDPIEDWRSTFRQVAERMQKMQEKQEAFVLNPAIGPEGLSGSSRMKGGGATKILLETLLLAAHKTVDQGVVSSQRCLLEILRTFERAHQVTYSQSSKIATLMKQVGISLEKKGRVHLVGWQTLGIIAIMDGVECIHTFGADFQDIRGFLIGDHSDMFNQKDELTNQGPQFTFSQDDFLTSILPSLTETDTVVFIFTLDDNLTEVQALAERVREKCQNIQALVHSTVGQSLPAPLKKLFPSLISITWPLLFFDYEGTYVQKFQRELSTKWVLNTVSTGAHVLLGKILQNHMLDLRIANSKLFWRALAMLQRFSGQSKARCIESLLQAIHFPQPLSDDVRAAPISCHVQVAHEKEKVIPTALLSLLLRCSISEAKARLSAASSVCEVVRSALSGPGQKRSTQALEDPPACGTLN

B1: human pancreatic glucokinase (enzyme)
chain: DDRARMEAAKKEKVEQILAEFQLQEEDLKKVMRRMQKEMDRGLRLETHEEASVKMLPTYVRSTPEGSEVGDFLSLDLGGTNFRVMLVKVGEGEEGQWSVKTKHQMYSIPEDAMTGTAEMLFDYISECISDFLDKHQMKHKKLPLGFTFSFPVRHEDIDKGILLNWTKGFKASGAEGNNVVGLLRDAIKRRGDFEMDVVAMVNDTVATMISCYYEDHQCEVGMIVGTGCNACYMEEMQNVELVEGDEGRMCVNTEWGAFGDSGELDEFLLEYDRLVDESSANPGQQLYEKLIGGKYMGELVRLVLLRLVDENLLFHGEASEQLRTRGAFETRFVSQVESDTGDRKQIYNILSTLGLRPSTTDCDIVRRACESVSTRAAHMCSAGLAGVINRMRESRSEDVMRITVGVDGSVYKLHPSFKERFHASVRRLTPSCEITFIESEEGSGRGAALVSAVACKKACMLGQ

Assays:
[1] = target: Glucokinase (Homo sapiens) (UniProt P35557); settings: cited from earlier work
[2] = target: T1, rat liver glucokinase regulatory protein; assay: crystal structure

| Molecule | Kd [1] | binding result [2] |
| --- | --- | --- |
| GKRP (from UniProt Q07071) | 1000 nM | – |
| B1 | – | binds |

Reference: article PMC3859847 (Biochemistry, 2013)
